Results reported in patent publication US20080219985A1 (published 2008).
“And” between values parts separate entries of the source, which are not always exact repeats. Identical values can stand only once. Like-named read-outs stand apart in the source and are kept apart here.

How the values were obtained:
GPCR73a receptor [1] = target: T1, GPCR73a receptor (human, UniProt Q8TCW9 1-393); experiment: cell-based or functional assay
GPCR73a receptor [2] = target: T1, GPCR73a receptor; experiment: cell-based or functional assay; remark: listed apart in the source
GPCR73b receptor [3] = target: T2, GPCR73b receptor (Homo sapiens (Human), UniProt Q8NFJ6 1-384); experiment: cell-based or functional assay
T2 sequence (Q8NFJ6 whole entry): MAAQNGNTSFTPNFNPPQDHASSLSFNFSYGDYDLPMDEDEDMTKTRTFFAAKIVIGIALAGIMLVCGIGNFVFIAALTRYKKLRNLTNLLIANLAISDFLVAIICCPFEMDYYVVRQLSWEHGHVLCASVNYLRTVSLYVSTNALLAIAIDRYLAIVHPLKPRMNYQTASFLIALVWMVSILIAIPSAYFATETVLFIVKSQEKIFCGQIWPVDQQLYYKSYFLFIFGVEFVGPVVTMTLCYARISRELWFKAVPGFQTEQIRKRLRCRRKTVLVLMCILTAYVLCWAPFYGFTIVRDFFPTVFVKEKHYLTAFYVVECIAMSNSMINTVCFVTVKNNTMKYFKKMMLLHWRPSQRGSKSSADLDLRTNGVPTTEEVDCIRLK

GPCR73b receptor [4] = target: T2, GPCR73b receptor; experiment: cell-based or functional assay; remark: listed apart in the source
[5] = target: PROK2 receptor on 4T1.2 murine breast cancer cells (mouse); experiment: cell-based or functional assay
[6] = target: T3, PROK2 receptor on Wky12-22 cells (rat aortic smooth muscle cells) (rat); experiment: cell-based or functional assay
T3 sequence (Q4AEG4 whole entry): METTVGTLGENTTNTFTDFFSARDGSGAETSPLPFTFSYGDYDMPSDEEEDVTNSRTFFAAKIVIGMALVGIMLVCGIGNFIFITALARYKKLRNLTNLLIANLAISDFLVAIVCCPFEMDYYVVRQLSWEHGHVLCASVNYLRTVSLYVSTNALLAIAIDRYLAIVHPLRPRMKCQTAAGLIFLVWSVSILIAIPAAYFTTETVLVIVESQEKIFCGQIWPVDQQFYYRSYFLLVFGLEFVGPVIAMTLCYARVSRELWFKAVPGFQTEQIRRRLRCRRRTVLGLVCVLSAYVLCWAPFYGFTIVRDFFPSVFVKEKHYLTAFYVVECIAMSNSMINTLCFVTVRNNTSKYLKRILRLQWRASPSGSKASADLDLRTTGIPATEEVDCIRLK

GPCR73a receptor [7] = target: T1, GPCR73a receptor; experiment: cell-based or functional assay; remark: listed apart in the source
[8] = target: T3, PROK2 receptor on Wky12-22 cells (rat …); experiment: saturation binding of I-125 PROK2 to Wky12-22 cell monolayers at 4 C, two-site nonlinear regression, low affinity site
Procedure: (§1) The binding of PROK2 to Wky12-22 cells was assessed using I¹²⁵-radiolabeled PROK2. Wky12-22 cells were seeded at low cell density and cultured for three to four days until they reached about 70% confluency. The cells were placed on ice, the medium was removed, and the monolayers were washed. The cells were incubated with increasing amounts of I¹²⁵-PROK2 in the absence (total binding) and presence (nonspecific binding) of a large excess of unlabeled PROK2. After various times at 4° C., the binding media were removed, the monolayers were washed, and the cells were solubilized with a small volume of 1.0 N NaOH. Cell associated radioactivity was determined in a gamma counter. The specific binding of I¹²⁵-PROK2 was calculated as the difference between the total and nonspecific values. The measured radioacitivity was normalized to cell number that was determined on a set of parallel cultures. Nonlinear regression using a two-site model was used to fit the binding data for determination of Kd and Bmax.

[9] = target: T3, PROK2 receptor on Wky12-22 cells (rat …); experiment: saturation binding of I-125 PROK2 to Wky12-22 cell monolayers at 4 C, two-site nonlinear regression, high affinity site
Procedure: as §1

T1 sequence (Q8TCW9 whole entry): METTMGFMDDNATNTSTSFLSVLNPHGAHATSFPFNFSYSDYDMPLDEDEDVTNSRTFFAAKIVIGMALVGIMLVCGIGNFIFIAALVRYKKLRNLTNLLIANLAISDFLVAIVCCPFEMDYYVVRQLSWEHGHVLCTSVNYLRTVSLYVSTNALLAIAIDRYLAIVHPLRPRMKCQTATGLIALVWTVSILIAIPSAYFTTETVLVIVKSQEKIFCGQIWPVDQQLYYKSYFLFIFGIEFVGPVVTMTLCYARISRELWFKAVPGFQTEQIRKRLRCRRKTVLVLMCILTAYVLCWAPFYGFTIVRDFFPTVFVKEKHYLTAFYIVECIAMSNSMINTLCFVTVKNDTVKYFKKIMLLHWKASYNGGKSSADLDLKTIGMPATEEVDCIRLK

B1: human PROK2 produced in E. coli (in house) (ligand)
chain: AVITGACDKDSQCGGGMCCAVSIWVKSIRICTPMGKLGDSCHPLTRKVPFFGRRMHHTCPCLPGLACLRTSFNRFICLAQK
SRE-luciferase fold-induction at 1 ng/ml (GPCR73a receptor [1]): 1.9 fold-induction
SRE-luciferase fold-induction at 3.2 ng/ml (GPCR73a receptor [1]): 4 fold-induction
SRE-luciferase fold-induction at 10 ng/ml (GPCR73a receptor [1]): 8.4 fold-induction
SRE-luciferase fold-induction at 32 ng/ml (GPCR73a receptor [1]): 15 fold-induction
SRE-luciferase fold-induction at 100 ng/ml (GPCR73a receptor [1]): 19 fold-induction
SRE-luciferase fold-induction at 320 ng/ml (GPCR73a receptor [1]): 20.7 fold-induction
SRE-luciferase fold-induction at 1000 ng/ml (GPCR73a receptor [1]): 17.8 fold-induction
SRE-luciferase fold-induction at 1 ng/ml (GPCR73a receptor [2]): 4.1 fold-induction
SRE-luciferase fold-induction at 3.2 ng/ml (GPCR73a receptor [2]): 7.6 fold-induction
SRE-luciferase fold-induction at 10 ng/ml (GPCR73a receptor [2]): 10.2 fold-induction
SRE-luciferase fold-induction at 32 ng/ml (GPCR73a receptor [2]): 14.1 fold-induction
SRE-luciferase fold-induction at 100 ng/ml (GPCR73a receptor [2]): 17.6 fold-induction
SRE-luciferase fold-induction at 320 ng/ml (GPCR73a receptor [2]): 22 fold-induction
SRE-luciferase fold-induction at 1000 ng/ml (GPCR73a receptor [2]): 13.9 fold-induction
SRE-luciferase fold-induction at 1 ng/ml (GPCR73b receptor [3]): 0.7 fold-induction
SRE-luciferase fold-induction at 3.2 ng/ml (GPCR73b receptor [3]): 1.3 fold-induction
SRE-luciferase fold-induction at 10 ng/ml (GPCR73b receptor [3]): 1.9 fold-induction
SRE-luciferase fold-induction at 32 ng/ml (GPCR73b receptor [3]): 3 fold-induction
SRE-luciferase fold-induction at 100 ng/ml (GPCR73b receptor [3]): 4.7 fold-induction
SRE-luciferase fold-induction at 320 ng/ml (GPCR73b receptor [3]): 6.3 fold-induction
SRE-luciferase fold-induction at 1000 ng/ml (GPCR73b receptor [3]): 7.1 fold-induction
SRE-luciferase fold-induction at 1 ng/ml (GPCR73b receptor [4]): 1 fold-induction
SRE-luciferase fold-induction at 3.2 ng/ml (GPCR73b receptor [4]): 1.2 fold-induction
SRE-luciferase fold-induction at 10 ng/ml (GPCR73b receptor [4]): 1.7 fold-induction
SRE-luciferase fold-induction at 32 ng/ml (GPCR73b receptor [4]): 2.6 fold-induction
SRE-luciferase fold-induction at 100 ng/ml (GPCR73b receptor [4]): 4.4 fold-induction
SRE-luciferase fold-induction at 320 ng/ml (GPCR73b receptor [4]): 5.2 fold-induction
SRE-luciferase fold-induction at 1000 ng/ml (GPCR73b receptor [4]): 4.8 fold-induction

B2: human PROK2 (preparation not stated for the assay) (ligand)
chain: B1 chain
ERK phosphorylation in 4T1.2 cells (BIO-PLEX phospho-protein assay), maximal at 100 ng/ml PROK2 [5]: 1.8 fold
ERK 1/2 phosphorylation in Wky12-22 cells, 15 minutes after 100 ng/ml PROK2 [6]: 11 fold induction over basal
JNK phosphorylation in Wky12-22 cells, 15 minutes after 100 ng/ml PROK2 [6]: 3 fold

B3: human PROK2 with a carboxy-terminal Glu-Glu tag, produced in baculovirus (PROK2cee) (ligand)
chain: AVITGACDKDSQCGGGMCCAVSIWVKSIRICTPMGKLGDSCHPLTRKVPFFGRRMHHTCPCLPGLACLRTSFNRFICLAQKGLEYMPMD
notes: also called huPROK2-CEE-Bv; Baculovirus-expressed PROK2
EC50 of ERK-Map kinase activity in Wky12-22 cells [6]: 0.5 nM and ~5 ng/ml
SRE-luciferase fold-induction at 1 ng/ml, PROK2 heated at 56 C for 30 minutes (GPCR73a receptor [7]): 1.8 fold-induction
SRE-luciferase fold-induction at 1 ng/ml, fresh PROK2 (GPCR73a receptor [7]): 2.5 fold-induction
SRE-luciferase fold-induction at 3.2 ng/ml, PROK2 heated at 56 C for 30 minutes (GPCR73a receptor [7]): 3.7 fold-induction
SRE-luciferase fold-induction at 3.2 ng/ml, fresh PROK2 (GPCR73a receptor [7]): 7.1 fold-induction
SRE-luciferase fold-induction at 10 ng/ml, PROK2 heated at 56 C for 30 minutes (GPCR73a receptor [7]): 10 fold-induction
SRE-luciferase fold-induction at 10 ng/ml, fresh PROK2 (GPCR73a receptor [7]): 13.1 fold-induction
SRE-luciferase fold-induction at 32 ng/ml, PROK2 heated at 56 C for 30 minutes (GPCR73a receptor [7]): 14.8 fold-induction
SRE-luciferase fold-induction at 32 ng/ml, fresh PROK2 (GPCR73a receptor [7]): 18.7 fold-induction
SRE-luciferase fold-induction at 100 ng/ml, PROK2 heated at 56 C for 30 minutes (GPCR73a receptor [7]): 18.6 fold-induction
SRE-luciferase fold-induction at 100 ng/ml, fresh PROK2 (GPCR73a receptor [7]): 20.5 fold-induction
Kd [8]: 31 nM
Kd [9]: 1.5 nM
